Here are results for 2 substances from PMC7416607.

For test [1], the target named is poliovirus receptor-related 4 (ovis aries Nectin-4), Nectin 4-Myc (ovis aries). The test can be described thus: co-IP.
Test [2] concerns the target Peste-des-petits-ruminants virus haemagglutinin (H) protein of the Nigeria 75/1 strain, Hv-HA (Peste-des-petits-ruminants virus, strain Nigeria 75/1). Kind of test: co-IP.
For test [3] the target is unchanged. The test can be described thus: SPR.

Turning to “Peste-des-petits-ruminants virus haemagglutinin (H) protein of the Nigeria 75/1 strain, Hv-HA (natural protein)”, the calibrated ratio of co-IP (percent of Hv and Nectin 4) in test [1] was found to be 100%.

By Kd is commonly meant the constant that tells how readily two partners part at equilibrium. As a reminder, the koff is a measure of how fast the partners let go of each other. High values mean a short-lived complex, low ones a long-lived complex. One may read the kon as the second-order rate constant of association. Low readings indicate slow association, high ones fast association. As to “poliovirus receptor-related 4 (ovis aries Nectin-4), Nectin 4-Myc”, the calibrated ratio of co-IP (percent of Hv and Nectin 4) in test [2] was 100%. In test [3], the Kd was determined as 306 nM, the koff came to 0.000435 s⁻¹ and the kon was 1420 M⁻¹ s⁻¹.
